# Test system: Escherichia coli TOP10
# Assay: shrunken log2 fold change of peptide-encoding DNA abundance (4.5 h post-induction vs induction); higher = less antimicrobial activity (less host growth inhibition)
# Details: time post-induction: 4.5 h; library: site-saturation at positions 5, 18, 19, 20
# 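Further: peptides expressed intracellularly from a pBAD plasmid library in pooled LB shake-flask culture, induced with 0.3% L-arabinose, DNA abundance read by NGS, three biological replicates, DESeq2 with apeglm shrinkage.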
row,Sequence,shrunken log2 fold change
1,RRIRFRPPRLPRPRPRPIKHPRP,-0.485
2,RRIRERPPRLPRPRPRPNGIPRP,-0.115
3,RRIRWRPPRLPRPRPRPDKEPRP,0.0411
4,RRIRERPPRLPRPRPRPWTAPRP,-0.478
5,RRIRMRPPRLPRPRPRPTPNPRP,0.87
6,RRIRARPPRLPRPRPRPYWYPRP,-0.763
7,RRIRRRPPRLPRPRPRPCKFPRP,0.123
8,RRIRVRPPRLPRPRPRPDQSPRP,-0.053
9,RRIRHRPPRLPRPRPRPACHPRP,-0.2
10,RRIRTRPPRLPRPRPRPCLHPRP,-1.17
11,RRIRWRPPRLPRPRPRPFGHPRP,-0.102
12,RRIRSRPPRLPRPRPRPEQRPRP,-0.011
13,RRIRRRPPRLPRPRPRPAKQPRP,0.136
14,RRIRIRPPRLPRPRPRPLKCPRP,0.0563
15,RRIRRRPPRLPRPRPRPAINPRP,-0.0133
16,RRIRPRPPRLPRPRPRPGWHPRP,0.248
17,RRIRIRPPRLPRPRPRPRNTPRP,-0.208
18,RRIRGRPPRLPRPRPRPWNKPRP,-0.306
19,RRIRQRPPRLPRPRPRPFIAPRP,-0.277
20,RRIRFRPPRLPRPRPRPCKSPRP,-0.0582
21,RRIRWRPPRLPRPRPRPYRGPRP,-0.0785
22,RRIRERPPRLPRPRPRPSCMPRP,-0.416
23,RRIRARPPRLPRPRPRPSDIPRP,-0.0794
24,RRIRTRPPRLPRPRPRPILAPRP,0.00499
25,RRIRYRPPRLPRPRPRPEREPRP,-0.0221

row,Sequence,shrunken log2 fold change
1,RRIRLRPPRLPRPRPRPSNSPRP,-0.564
2,RRIRHRPPRLPRPRPRPVEKPRP,-0.0342
3,RRIRGRPPRLPRPRPRPLGNPRP,0.17
4,RRIRMRPPRLPRPRPRPFICPRP,0.0468
5,RRIRKRPPRLPRPRPRPQMAPRP,0.481
6,RRIRVRPPRLPRPRPRPKEYPRP,-0.282
7,RRIRFRPPRLPRPRPRPKRLPRP,0.0144
8,RRIRVRPPRLPRPRPRPYWKPRP,-0.074
9,RRIRYRPPRLPRPRPRPECMPRP,-0.417
10,RRIRGRPPRLPRPRPRPQFQPRP,0.0768
11,RRIRYRPPRLPRPRPRPTPDPRP,-0.145
12,RRIRPRPPRLPRPRPRPESVPRP,0.0986
13,RRIRTRPPRLPRPRPRPKWAPRP,0.0541
14,RRIRQRPPRLPRPRPRPGVFPRP,0.0582
15,RRIRCRPPRLPRPRPRPPECPRP,0.131
16,RRIRKRPPRLPRPRPRPNERPRP,-0.0286
17,RRIRFRPPRLPRPRPRPIQYPRP,-0.451
18,RRIRPRPPRLPRPRPRPIDEPRP,-0.0401
19,RRIRQRPPRLPRPRPRPVVIPRP,-0.292
20,RRIRRRPPRLPRPRPRPSTLPRP,-0.174
21,RRIRERPPRLPRPRPRPGPKPRP,-0.00801
22,RRIRKRPPRLPRPRPRPENIPRP,-0.0813
23,RRIRDRPPRLPRPRPRPCSHPRP,-0.0198
24,RRIRTRPPRLPRPRPRPNGEPRP,-0.12
25,RRIRGRPPRLPRPRPRPMAAPRP,1.4

row,Sequence,shrunken log2 fold change
1,RRIRRRPPRLPRPRPRPEDFPRP,0.117
2,RRIRCRPPRLPRPRPRPRFKPRP,-0.00257
3,RRIRTRPPRLPRPRPRPPPNPRP,1.22
4,RRIRRRPPRLPRPRPRPATDPRP,0.204
5,RRIRQRPPRLPRPRPRPMRTPRP,0.661
6,RRIRKRPPRLPRPRPRPFFPPRP,0.967
7,RRIRWRPPRLPRPRPRPFRQPRP,-0.0956
8,RRIRCRPPRLPRPRPRPHSYPRP,-0.272
9,RRIRDRPPRLPRPRPRPVAFPRP,0.589
10,RRIRDRPPRLPRPRPRPLTAPRP,0.48
11,RRIRMRPPRLPRPRPRPLVQPRP,0.199
12,RRIRFRPPRLPRPRPRPAMHPRP,0.234
13,RRIRTRPPRLPRPRPRPGNTPRP,-0.0393
14,RRIRCRPPRLPRPRPRPIDCPRP,-0.128
15,RRIRYRPPRLPRPRPRPYHHPRP,-0.0688
16,RRIRCRPPRLPRPRPRPNQCPRP,2.64
17,RRIRMRPPRLPRPRPRPIGHPRP,0.0299
18,RRIRFRPPRLPRPRPRPHYFPRP,-0.161
19,RRIRTRPPRLPRPRPRPPCEPRP,0.0977
20,RRIRRRPPRLPRPRPRPHRYPRP,-0.0438
21,RRIRSRPPRLPRPRPRPTEWPRP,0.00483
22,RRIRLRPPRLPRPRPRPTIAPRP,-0.183
23,RRIRGRPPRLPRPRPRPTITPRP,0.526
24,RRIRPRPPRLPRPRPRPICLPRP,2.37
25,RRIRARPPRLPRPRPRPWYEPRP,-0.0297

row,Sequence,shrunken log2 fold change
1,RRIRPRPPRLPRPRPRPQKCPRP,-0.0778
2,RRIRIRPPRLPRPRPRPTPWPRP,0.154
3,RRIRERPPRLPRPRPRPFPGPRP,-0.0108
4,RRIRFRPPRLPRPRPRPNHIPRP,-0.937
5,RRIRKRPPRLPRPRPRPTSRPRP,0.159
6,RRIRMRPPRLPRPRPRPKIAPRP,0.244
7,RRIRSRPPRLPRPRPRPAMDPRP,0.0404
8,RRIRERPPRLPRPRPRPWRLPRP,-0.00145
9,RRIRDRPPRLPRPRPRPYANPRP,-0.209
10,RRIRSRPPRLPRPRPRPHPVPRP,0.12
11,RRIRERPPRLPRPRPRPQVDPRP,-0.211
12,RRIRKRPPRLPRPRPRPLAYPRP,0.259
13,RRIRIRPPRLPRPRPRPVPWPRP,2.5
14,RRIRERPPRLPRPRPRPRGSPRP,0.147
15,RRIRVRPPRLPRPRPRPAQYPRP,-0.0437
16,RRIRFRPPRLPRPRPRPEFWPRP,0.264
17,RRIRMRPPRLPRPRPRPDPHPRP,0.0256
18,RRIRYRPPRLPRPRPRPLQWPRP,-0.0328
19,RRIRARPPRLPRPRPRPYWGPRP,-0.43
20,RRIRPRPPRLPRPRPRPGHYPRP,-0.0973
21,RRIRYRPPRLPRPRPRPAMCPRP,0.00292
22,RRIRTRPPRLPRPRPRPNYGPRP,-0.363
23,RRIRTRPPRLPRPRPRPALWPRP,0.213
24,RRIRGRPPRLPRPRPRPGYFPRP,3.3
25,RRIRDRPPRLPRPRPRPEWYPRP,0.0233

row,Sequence,shrunken log2 fold change
1,RRIRIRPPRLPRPRPRPCAGPRP,-0.000248
2,RRIRWRPPRLPRPRPRPHVAPRP,0.181
3,RRIRSRPPRLPRPRPRPMKMPRP,-0.0963
4,RRIRKRPPRLPRPRPRPGKCPRP,0.0131
5,RRIRARPPRLPRPRPRPHKDPRP,0.0954
6,RRIRCRPPRLPRPRPRPMWIPRP,0.085
7,RRIRNRPPRLPRPRPRPEKAPRP,-0.0149
8,RRIRCRPPRLPRPRPRPKKDPRP,-0.000499
9,RRIRARPPRLPRPRPRPLELPRP,0.386
10,RRIRERPPRLPRPRPRPNKDPRP,-0.321
11,RRIRVRPPRLPRPRPRPTGLPRP,0.000711
12,RRIRDRPPRLPRPRPRPRKAPRP,-0.0143
13,RRIRPRPPRLPRPRPRPLCPPRP,-0.128
14,RRIRNRPPRLPRPRPRPDPCPRP,-0.145
15,RRIRYRPPRLPRPRPRPRCIPRP,-0.308
16,RRIRQRPPRLPRPRPRPQGRPRP,-0.0215
17,RRIRPRPPRLPRPRPRPNRMPRP,-0.138
18,RRIRCRPPRLPRPRPRPVWKPRP,0.159
19,RRIRVRPPRLPRPRPRPKVPPRP,-0.00247
20,RRIRYRPPRLPRPRPRPKFMPRP,-0.633
21,RRIRPRPPRLPRPRPRPDICPRP,0.0683
22,RRIRNRPPRLPRPRPRPTKAPRP,-0.00132
23,RRIRIRPPRLPRPRPRPVSSPRP,-0.213
24,RRIRIRPPRLPRPRPRPDAHPRP,-0.136
25,RRIRFRPPRLPRPRPRPYNEPRP,-0.812

# From the supplement of paper PMC9112550, “Optimization of the antimicrobial peptide Bac7 by deep mutational scanning” (BMC Biology, 2022)
